Laboratory results taken from patent publication US20220184120A1 (MINERVA BIOTECHNOLOGIES, published 2022).
Values belong to the binder of their own block, whether it stands above or below them.

B6: C-10 peptide (PSMGFR minus 10 amino acids from the C-terminus) (peptide)
peptide: GTINVHDVETQFNQYKTEAASRYNLTISDVSVSDV
notes: also called C-10 PSMGFR; PSMGFR C-10

Columns and labels:
[1] = target: T1, MUC1 transmembrane cleavage product after cleavage of full-length MUC1 by MMP9 (UniProt P15941 1110-1255); assay: flow cytometry, HCT-MUC1-18 cells + enzyme (FIG. 75K)
T1 construct: on HCT-MUC1-18 (or T47D) cells treated with MMP9; also called MUC1* generated by cleavage by MMP9; MMP9 cleaved form of MUC1
T1 sequence (looked up): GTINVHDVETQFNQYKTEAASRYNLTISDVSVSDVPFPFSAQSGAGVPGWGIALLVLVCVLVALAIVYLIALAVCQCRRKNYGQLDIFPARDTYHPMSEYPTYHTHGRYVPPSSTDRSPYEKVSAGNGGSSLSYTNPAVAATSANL
Protocol: (§1) Antibodies generated by immunization with PSMGFR, N+20/C−27, or N+9/C−9 were tested for their ability to recognize MUC1 after it is cleaved by MMP9. […] To HCT-MUC1-18 cells was added either a catalytically active MMP9 or MMP2. The enzymes, added over a range of concentrations, were incubated with the cells for 24 hours. The resultant cells were then incubated with the various antibodies and analyzed by FACS to determine which bound to a MUC1 cleavage product produced by cleavage by MMP9 (FIG. 75A-75N). […] Each bar graph is labeled with both the name of the antibody used in that assay and its cognate epitope. The order of the graphs from right to left corresponds to the distance from the cell surface of the antibody's cognate epitope. […] For the greatest degree of cancer specificity, the antibody should recognize a conformational epitope of a MUC1 cleavage product created when MUC1 is cleaved by MMP9.

[2] = target: T2, MUC1* (cleaved MUC1) as it occurs on MUC1/MUC1* positive cancer cell lines (human, UniProt P15941 1110-1255, limits assumed); assay: flow cytometry, panel of cancer cell lines (FIGS. 80-87)
T2 construct: the cell line is named under assay; also called MUC1* positive cancer cells; ZR-75-1 aka 1500
T2 sequence (looked up): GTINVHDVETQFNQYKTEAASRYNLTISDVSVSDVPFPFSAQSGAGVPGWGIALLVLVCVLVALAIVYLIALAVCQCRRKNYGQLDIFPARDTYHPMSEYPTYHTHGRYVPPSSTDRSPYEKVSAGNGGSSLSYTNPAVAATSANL

[3] = target: T3, PSMGFR peptide (Primary Sequence of the MUC1 Growth Factor Receptor); assay: ELISA (FIG. 65A)
T3 construct: synthetic peptide immobilised on ELISA plates; also called MUC1* peptide; MUC1* extra cellular domain peptide
T3 peptide: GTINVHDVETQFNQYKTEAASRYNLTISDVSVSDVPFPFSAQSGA
Text: The antibodies being tested were derived from animals immunized with the N+20/C−27 peptide. The first selection criteria was to confirm that the antibodies bound to the immunizing N+20/C−27 peptide. […] Although these antibodies were raised against the N+20/C−27 peptide, all but one, 45C11, still bind to the PSMGFR peptide. […] 1E4 was able to bind to the N+20/C−27 peptide, the PSMGFR and the N−10 peptide, consistent with the idea that its epitope must lie within the […] sequence. […] The color of the bars for each antibody in the ELISA graph are color coded to match the deductive cognate sequence, or a portion thereof, of that antibody.
This same ELISA assay was performed on the antibodies of the invention (FIG. 64-66 and FIG. 201). Note that only 20A10 exactly matches the binding profile of MNC2 and MNE6. 25E6, 28F9 and 18G12 are all able to bind to the N−10 peptide. 18B4 is the only antibody raised against the PSMGFR peptide that requires the 10 most N-terminal amino acids of the peptide. The color of the bars for each antibody in the ELISA graph are color coded to match the deductive cognate sequence, or a portion thereof, of that antibody. In addition, another set of antibodies was assayed by ELISA (FIG. 201). Of this set, B12, B2, B7, B9, 8C7F3, and H11 bound to the PSMGFR peptide, bound to the N−10 peptide, but not to the C−10 peptide (FIG. 201).

[4] = target: T4, N-10 peptide (PSMGFR minus 10 amino acids from the N-terminus); assay: ELISA
T4 construct: also called N-10 PSMGFR; PSMGFR N-10
T4 peptide: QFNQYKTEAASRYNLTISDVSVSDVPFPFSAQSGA

[5] = target: T3, PSMGFR peptide (Primary Sequence of the …); assay: ELISA (FIG. 2C)
[6] = target: T4, N-10 peptide (PSMGFR minus 10 amino …); assay: ELISA (FIG. 2B-2C)
[7] = target: T5, N+20/C-27 peptide (20 amino acids added onto the N-terminus and 27 deleted from the C-terminus of PSMGFR); assay: ELISA (FIG. 63)
T5 peptide: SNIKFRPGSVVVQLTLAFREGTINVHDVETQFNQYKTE
Protocol: (§2) ELISA assays were performed to determine if, in addition to recognizing their immunizing peptide, they recognized PSMGFR, N−10 or C−10. In addition, they were tested for their ability to bind to N+20/C−27, N+9/C−9. We first did the ELISA assay on our set of reference antibodies, MNC2, MNE6, which we know are cancer-specific plus MNC3, which we know recognizes stem cells and progenitor cells (FIG. 63A-63B). None of the reference antibodies bound to the N+20/C−27 peptide. MNC2 and MNE6 cannot bind to PSMGFR peptides with 27, 10 or 9 C-terminal deletions, however, MNC3 binds to C−10 and to N+9/C−9 peptides.

[8] = target: T6, N+9/C-9 peptide (9 amino acids added onto the N-terminus and 9 deleted from the C-terminus of PSMGFR); assay: ELISA (FIG. 63A)
T6 peptide: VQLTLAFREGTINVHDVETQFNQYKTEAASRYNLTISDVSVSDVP
Protocol: as §2

[9] = target: B6; assay: ELISA
[10] = target: T7, N-26 peptide; assay: ELISA (FIG. 69)
T7 peptide: ISDVSVSDVPFPFSAQSGA
Protocol: (§3) In order to further refine the epitopes to which each antibody binds, a series of smaller peptides derived from the PSMGFR sequence were synthesized: N−30 (SEQ ID NO:7), N−26 (SEQ ID NO:6), N−19 (SEQ ID NO:4), N−10/C−5 (SEQ ID NO:8), N−19/C−5 (SEQ ID NO:9). Each of the antibodies was tested in an ELISA assay for their ability to bind to this refined set of peptides, plus PSMGFR, N−10 and C−10 peptides (FIG. 67-69).

[11] = target: T8, N-19/C-5 peptide; assay: ELISA (FIG. 69)
T8 peptide: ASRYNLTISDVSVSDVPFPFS
Protocol: as §3

[12] = target: T3, PSMGFR peptide (Primary Sequence of the …); assay: ELISA (FIG. 69)
Protocol: as §3

[13] = target: T4, N-10 peptide (PSMGFR minus 10 amino …); assay: ELISA (FIG. 69)
Protocol: as §3

[14] = target: T9, N-30 peptide; assay: ELISA (FIG. 69)
T9 peptide: SVSDVPFPFSAQSGA
Protocol: as §3

[15] = target: T10, N-10/C-5 peptide; assay: ELISA (FIG. 69)
T10 peptide: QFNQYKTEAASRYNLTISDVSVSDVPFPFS
Protocol: as §3

[16] = target: B6; assay: ELISA (FIG. 69)
Protocol: as §3

[17] = target: T11, N-19 peptide; assay: ELISA (FIG. 69)
T11 peptide: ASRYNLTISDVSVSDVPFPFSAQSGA
Protocol: as §3

[18] = target: T6, N+9/C-9 peptide (9 amino acids added …); assay: ELISA (FIG. 66)
[19] = target: T1, MUC1 transmembrane cleavage product …; assay: flow cytometry, HCT-MUC1-18 cells + enzyme (FIG. 75L)
Protocol: as §1

[20] = target: T6, N+9/C-9 peptide (9 amino acids added …); assay: ELISA
[21] = target: B6; assay: ELISA (recap in IHC legend)
[22] = target: T3, PSMGFR peptide (Primary Sequence of the …); assay: ELISA, PSMGFR peptide on plate (FIG. 5)
Protocol: Humanized MN-C2 scFv is then incubated with the surface, washed and detected according to standard methods.

[23] = target: T12, dimeric NME1 (human, UniProt P15531 1-152, limits assumed); assay: ELISA (FIG. 2D)
T12 construct: also called NM23-H1 dimers; dimeric NM23-H1
T12 sequence (P15531 whole entry): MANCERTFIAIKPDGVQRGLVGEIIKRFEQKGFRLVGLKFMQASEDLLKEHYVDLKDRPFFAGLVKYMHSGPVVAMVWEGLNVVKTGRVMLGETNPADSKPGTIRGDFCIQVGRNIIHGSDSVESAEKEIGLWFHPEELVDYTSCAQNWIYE
Protocol: (§4) FIGS. 2A-2I show results of ELISA assays. MUC1* peptides PSMGFR, PSMGFR minus 10 amino acids from the N-terminus aka N−10, or PSMGFR minus 10 amino acids from the C-terminus, aka C−10 are immobilized on the plate and the following are assayed for binding: NME7-AB (FIG. 2A), MN-C2 monoclonal antibody (FIG. 2B), MN-E6 monoclonal antibody (FIG. 2C), or dimeric NME1 (FIG. 2D). […] MUC1* peptides PSMGFR minus 10 amino acids from the N-terminus aka N−10, or PSMGFR minus 10 amino acids from the C-terminus, aka C−10, are immobilized on the plate and the following are assayed for binding: MN-C3 (FIG. 2E) and MN-C8 (FIG. 2F).

[24] = target: T13, NME7-AB (recombinant) (Homo sapiens (Human), UniProt Q9Y5B8 92-376); assay: ELISA (FIG. 2A)
T13 construct: the entry ends in a His tag; also called NM23-H7
T13 sequence: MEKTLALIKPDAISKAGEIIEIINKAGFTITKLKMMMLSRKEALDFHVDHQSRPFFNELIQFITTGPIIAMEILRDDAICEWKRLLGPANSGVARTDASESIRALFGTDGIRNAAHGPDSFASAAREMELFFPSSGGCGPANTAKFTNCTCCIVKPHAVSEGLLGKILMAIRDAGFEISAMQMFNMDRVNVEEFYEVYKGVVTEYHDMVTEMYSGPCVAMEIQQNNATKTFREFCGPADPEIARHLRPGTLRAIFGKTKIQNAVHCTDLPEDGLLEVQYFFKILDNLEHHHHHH
Protocol: as §4

binding result [1]: no binding | binding result [2]: no binding | binding result [3]: no binding | binding result [4]: no binding
B1: 45C11 mouse monoclonal antibody (antibody, V domains shown)
VH: EVQLQQSGADLVKPGASVKLSCTASGFNIKDTFMHWVKQRPEQGLEWIGRIDPANGNTKYDPKFQGKATITADTSSNTAYLQLSSLTSEDTAVYYCAKPYGNYGYYYALDYWGQGTSVTVSS
VL: DVQITQSPSYLAASPGETITINCRASKSISKYLAWYQEKPGKTNKLLIYSGSTLQSGIPSRFSGSGSGTDFTLTISSLEPEDFAMYYCQQHNEFPWTFGGGTKLEIK
notes: raised against N+20/C-27; also called N+20/C-27 antibody 45C11

binding result [5]: binds | binding result [6]: binds | binding result [7]: no binding | binding result [8]: no binding (tested: 10 ug/mL or 1 ug/mL) | binding result [9]: no binding
B2: MN-E6 mouse monoclonal anti-MUC1* antibody (antibody, V domains shown)
VH: EVKVVESGGDLVKPGGSLKLSCVVSGFTFSRYGMSWVRQTPGKRLEWVATISGGGTYIYYPDSVKGRFTISRDNAKNTLYLQMSSLKSEDTAMYHCTRDNYGRNYDYGMDYWGQGTSVTVSS
VL: QIVLTQSPAIMSASPGEEVTLTCSATSSVSYIHWFQQRPGTSPKLWIYSTSNLASGVPVRFSGSGYGTSYSLTISRMEAEDAATYYCQQRSSSPFTFGSGTKLEIK
notes: mouse monoclonal raised against PSMGFR; also called Min-E6

binding result [10]: no binding | binding result [11]: no binding | binding result [12]: no binding | binding result [13]: no binding | binding result [14]: no binding | binding result [15]: no binding | binding result [16]: no binding | binding result [17]: no binding | binding result [2]: no binding | binding result [18]: binds | binding result [19]: no binding
B3: 8A9 mouse monoclonal antibody (antibody, V domains shown)
VH: EVELVESGGGLVQPGGSLRLSCATSGFTFTDHYMSWVRQPPGKALEWLGFIRNKANGYTTEYSASVKGRFTISRDNSQSILYLQMKTLRTEDSATYYCARPSDWDSWFAYWGQGTLVTVSA
VL: DVLMTQTPLSLPVSLGDQASISCRSSQSIVHSNGNTYLDWYLQKPGQSPKLLIYRVSNRFSGVPDRFSGSGSGTDFTLKISRVEAEDLGLYYCFQGSHVPWAFGGGTKLEIK
notes: raised against N+9/C-9; also called N+9/C-9 antibody 8A9

binding result [10]: no binding | binding result [11]: no binding | binding result [14]: no binding | binding result [15]: no binding | binding result [16]: no binding | binding result [17]: no binding | binding result [20]: binds
B4: 39H5 mouse monoclonal antibody (antibody, V domains shown)
VH: QIQLVQSGPELKKPGETVKISCKASGYTFTNYGMNWVKQAPGKGLKWMGWINTYTGEPTYVGDFKGRFAFSLETSASTAYLQINNLKNEDTATYFCVRGIHGYVDYWGQGTTLTVSS
VL: DVLMTQTPLSLPVSLGDQASISCRSSQSIVHRNGNTYLEWYLQKPGQSPKLLIYKVSNRFSGVPDRFSGSGSGTDFTLKISRVEAEDLGVYYCFQGSHLPWTFGGGTKLEIK
notes: raised against N+9/C-9; also called N+9/C-9 antibody 39H5

binding result [21]: no binding | EC50 [22]: ~333 nM
B5: humanized MN-C2 scFv (scFv)
scFv: EVQLVESGGGLVKPGGSLRLSCAASGFTFSGYAMSWVRQAPGKGLEWVSTISSGGTYIYYPDSVKGRFTISRDNAKNSLYLQMNSLRAEDTAVYYCARLGGDNYYEYFDVWGKGTTVTVSSGGGGSGGGGSGGGGSDIVLTQSPASLAVSPGQRATITCRASKSVSTSGYSYMHWYQQKPGQPPKLLIYLASNLESGVPARFSGSGSGTDFTLTINPVEANDTANYYCQHSRELPFTFGGGTKVEIKRT
notes: also called huMN-C2scFv; huMNC2scFv; not shown: 6xHis tag detected with Anti-Penta-His antibody

Binder: B6
binding result [23]: no binding | binding result [24]: no binding
